Substrate in series [1]: COc1ccc(-c2coc3cc(O)ccc3c2=O)cc1
The experiment in a line: Formononetin sulfonation enzyme kinetics in HEK-SULT1A3 cell lysate. In kind it is in vitro ADME, human. Particulars: other: HEK-SULT1A3 cell lysate, Michaelis-Menten, mean ± SD (n = 3); pH 7.4. On the procedure: (§1) Enzyme kinetic of formononetin incubated with recombinant human SULT1A3 enzyme (rSULT1A3) was evaluated. The reaction was activated after the coenzyme PAPS (which provides sulfonate group to the substrates) was added. The incubation reaction was conducted in 200 μL potassium phosphate buffer (50 mM, pH 7.4) at 37°C, containing SULT1A3 enzyme (0.1 mg/ml), formononetin (0.16–40 μM), and PAPS (a final concentration of 0.10 mM). After incubation for 120 min, the reaction was terminated by adding 100 μL ice-cold acetonitrile. Then the samples were vortexed and centrifuged at 15,000 g for 15 min. The supernatant was analyzed by HPLC for sulfate quantification. All incubations were performed in triplicate. Preliminary experiments were performed to ensure that the rates of sulfation were determined under linear conditions with respect to incubation time and protein concentration.
The sulfonation rates of formononetin at different concentrations were determined according to the sulfonation assay protocol. The kinetic model Michaelis-Menten (Eq. 1) was fitted to the data of sulfonation rates vs. formononetin concentrations. […] The intrinsic clearance (CLint) was calculated by Vmax/Km.
Quantification of formononetin sulfate was performed using Agilent 1,260 Infinity II HPLC system with a ZORBAX SB-C18 column (4.6 × 250 mm, 5 μm; Agilent). […] The samples were analyzed using a gradient of ammonium acetate (2.5 mM) in water (mobile phase A) vs. acetonitrile (mobile phase B) at a flow rate of 1.0 ml/min. […]
HEK293 cells were stably transfected with the cDNA of Human SULT1A3 enzyme through the lentiviral transduction approach ([Sun et al., 2015]), which were named as HEK-SULT1A3 cells. The transduction efficiency was evaluated by measuring the SULT1A3 protein levels in both control and transfected cells. The enzyme function of HEK-SULT1A3 cells was further determined using sulfonation assay. […] Then, in order to identify the function of HEK-SULT1A3 cells in sulfate generation, formononetin was incubated with the HEK-SULT1A3 cell lysate and enzyme kinetic was determined as described above.

Substrate in series [2]: COc1ccc(-c2coc3cc(O)ccc3c2=O)cc1
The experiment in a line: Formononetin sulfonation enzyme kinetics in recombinant human SULT1A3. The note with it: other: rSULT1A3, Michaelis-Menten, mean ± SD (n = 3); pH 7.4. In kind it is in vitro ADME. The method, then: as §1
The sulfonation rates of formononetin at different concentrations were determined according to the sulfonation assay protocol. The kinetic model Michaelis-Menten (Eq. 1) was fitted to the data of sulfonation rates vs. formononetin concentrations. Model selection was based on visual inspection of the Eadie-Hofstee plot. […] Model fitting and kinetic parameters evaluation were performed using GraphPad Prism software (5.3 version). V=Vmax·[S]/Km+[S] (1) where Vmax is the maximal velocity and Km is the Michaelis constant. The intrinsic clearance (CLint) was calculated by Vmax/Km.
Quantification of formononetin sulfate was performed using Agilent 1,260 Infinity II HPLC system with a ZORBAX SB-C18 column (4.6 × 250 mm, 5 μm; Agilent). The temperature of the column was set at 40 °C. The samples were analyzed using a gradient of ammonium acetate (2.5 mM) in water (mobile phase A) vs. acetonitrile (mobile phase B) at a flow rate of 1.0 ml/min. The gradient elution condition was 15% B at 0–2.0 min, 15–95% B at 2.0–12 min, 95% B at 12–15 min, and 95–15% B at 15–18 min. The waiting time was 7.0 min at 15% B in order to ensure the column pressure is back to a stable state before the next injection. […]

B1: HEK-SULT1A3 cell lysate (Homo sapiens) (protein)
chain: MELIQDTSRPPLEYVKGVPLIKYFAEALGPLQSFQARPDDLLINTYPKSGTTWVSQILDMIYQGGDLEKCNRAPIYVRVPFLEVNDPGEPSGLETLKDTPPPRLIKSHLPLALLPQTLLDQKVKVVYVARNPKDVAVSYYHFHRMEKAHPEPGTWDSFLEKFMAGEVSYGSWYQHVQEWWELSRTHPVLYLFYEDMKENPKREIQKILEFVGRSLPEETMDFMVQHTSFKEMKKNPMTNYTTVPQELMDHSISPFMRKGMAGDWKTTFTVAQNERFDADYAEKMAGCSLSFRSEL
notes: expressed in transfected cells; cell lysate used
In general, Km refers to the concentration of substrate that gives half-maximal velocity. Broadly, the Vmax is the rate approached at saturating substrate. Regarding B1, in series [1], the Km amounted to 6.17 µM, the maximal velocity (Vmax) was 13.94 pmol/min/mg and the Vmax/Km was 2.26 ± 0.42 µL/min/mg.

B2: Recombinant human SULT1A3 enzymes (rSULT1A3) (Homo sapiens) (protein)
chain: B1 chain
notes: purchased Sekisui XenoTech LCC (Kansas, USA)
For the protein B2, in series [2], the Michaelis-Menten constant (Km) amounted to 6.01 ± 0.97 µM, the Vmax was 145.30 ± 7.91 pmol/min/mg and the Vmax/Km was determined as 24.18 ± 4.13 µL/min/mg.
